Test results published in article PMC7528078, “Single molecule studies reveal that p53 tetramers dynamically bind response elements containing one or two half sites”.

Assays:
[1] = target: T1, AF647-p53 (p53-SNAP labeled with AF647) (human, UniProt P04637 1-393); assay: EMSA; sub-nM affinity, assuming tetramer; EMSA: 25 mM HEPES pH 7.9, 50 mM KCl, 2.5 mM MgCl2, 1 mM EDTA, 10% glycerol, 0.1% NP-40, 1 mM DTT, 0.05 mg/mL BSA, room temp 30 min; TIRF: 25 mM Tris pH 7.9, 50; conditions: protein: recombinant; tags: N-terminal His; C-terminal SNAP tag with AlexaFluor647; chain copies: 4; label: 5' 32P on reverse strand; blunt
T1 sequence (P04637 whole entry): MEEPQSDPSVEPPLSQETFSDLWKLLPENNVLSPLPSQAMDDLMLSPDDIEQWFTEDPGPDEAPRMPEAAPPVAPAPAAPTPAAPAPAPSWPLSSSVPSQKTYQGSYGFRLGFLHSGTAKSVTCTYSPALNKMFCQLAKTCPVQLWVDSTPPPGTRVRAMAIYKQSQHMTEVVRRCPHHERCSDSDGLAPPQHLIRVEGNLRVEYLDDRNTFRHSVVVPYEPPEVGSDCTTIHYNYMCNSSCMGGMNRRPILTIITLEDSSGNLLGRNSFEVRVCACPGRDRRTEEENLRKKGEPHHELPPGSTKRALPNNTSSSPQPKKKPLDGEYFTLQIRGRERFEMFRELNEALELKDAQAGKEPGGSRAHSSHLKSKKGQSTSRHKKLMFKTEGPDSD

[2] = target: T1, AF647-p53 (p53-SNAP labeled with AF647); assay: single-molecule TIRF; apparent upper limit (<=), koff 1.0 s-1, kon(obs) 0.0188 s-1; EMSA: 25 mM HEPES pH 7.9, 50 mM KCl, 2.5 mM MgCl2, 1 mM EDTA, 10% glycerol, 0.1% NP-40, 1 mM DTT, 0.05 mg/mL BSA, room temp 30 min; TIRF: 25 mM Tris pH 7.9, 50; conditions: protein: recombinant; tags: N-terminal His; C-terminal SNAP tag with AlexaFluor647; chain copies: 4; label: 5' biotin on forward strand; 5' AF647 on reverse strand; 5' overhang 24 nt and 3' overhang 1 nt on forward strand as printed
[3] = target: T1, AF647-p53 (p53-SNAP labeled with AF647); assay: EMSA; complexes at low nM tetramer; EMSA: 25 mM HEPES pH 7.9, 50 mM KCl, 2.5 mM MgCl2, 1 mM EDTA, 10% glycerol, 0.1% NP-40, 1 mM DTT, 0.05 mg/mL BSA, room temp 30 min; TIRF: 25 mM Tris pH 7.9, 50; conditions: protein: recombinant; tags: N-terminal His; C-terminal SNAP tag with AlexaFluor647; chain copies: 4; label: 5' 32P on reverse strand; blunt

B1: wild type DNA (EMSA) (dsDNA)
DNA 1: TAGAGCGAACATGTCTAAGCATGCTGGCGTCG
DNA 2: CGACGCCAGCATGCTTAGACATGTTCGCTCTA
Kd [1]: < 1 nM

B2: mutant half site DNA (single molecule) (dsDNA)
DNA 1: CGCGTTCATGGTAGAGTCGTGGACTAGAGCGAACATGTCTTTCAAAGGCGGCGTCG
DNA 2: GACGCCGCCTTTGAAAGACATGTTCGCTCTA
Kd [2]: < 13 nM

B3: random DNA (EMSA) (dsDNA)
DNA 1: CGTTCCTAATCGGGTAGGGGCTGACACGAATA
DNA 2: TATTCGTGTCAGCCCCTACCCGATTAGGAACG
binding result [3]: binds
